Paper PMC7939288, “An apta-aggregation based machine learning assay for rapid quantification of lysozyme through texture parameters”

Target: lysozyme (chicken (hen egg white), UniProt P00698 19-147)
Experiment: visible aggregation assay (photograph texture); 3 ul of 25 nM aptamer + 10 ul of lysozyme; indirect read-out, lysozyme alone gave no aggregate; lysozyme in ultrapure water, no buffer or salt stated; 25 nM aptamer (3 ul) heated at 70 C for 3 min before use; 20 C, 70-90% relative humidity, about 1 min on
Conditions: protein: commercial; 3' hairpin (predicted only)

Sequence of lysozyme (P00698 19-147): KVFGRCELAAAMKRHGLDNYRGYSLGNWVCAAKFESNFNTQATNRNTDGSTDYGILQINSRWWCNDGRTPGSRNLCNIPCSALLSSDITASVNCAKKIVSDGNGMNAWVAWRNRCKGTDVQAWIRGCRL

ATCTACGAATTCATCAGGGCTAAAGAGTGCAGAGTTACTTAG (ssDNA) [anti-Lys aptamer (Ellington)]
binding result: binds
